Experiments:
[1] = target: T1, HA-CCT6 (human, UniProt P40227 2-531); test: co-IP with T7-LC3C in HEK293T
T1 construct: Amplified from HEK293T cDNA; not shown: N-terminal HA tag
Method: (§1) The data are representative of three independent experiments. [0146] […] The data are representative of three independent experiments. [0147] […] The data are representative of three independent experiments. [0148] […] The interaction of the peptides with T7-GABARAP or T7-GABARAPL1 proteins was analyzed by in vitro pull-down. The data are representative of three independent experiments. [0149] […] The data are representative of three independent experiments. [0150] […] [0151] (K) Quantification of Q103-HTT-GFP area/DAPI area (mean±SEM) as shown in [0152] (J). 48 h represents IB accumulation stage and 72 h represents clearance stage. P values are indicated (two-tailed t test, >20 views from three independent experiments). [0153] […] The data are representative of three independent experiments. [0154] […] The data are representative of three independent experiments. [0155] […] The data are representative of three independent experiments.
(§2) Co-immunoprecipitation was performed essentially as described before. In brief, 24 h after transfection, the cells were collected and lysed on ice for 30 min in co-IP buffer (50 mM Tris/HCl pH 7.4, 150 mM NaCl, 1 mM EDTA, 0.5% NP40) with protease inhibitor mixture, and the lysates were cleared by centrifugation. The resulting supernatants were incubated with indicated agarose or magnetic beads and rotated at 4° C. for 3 h. The agarose was washed five times with co-IP buffer.

[2] = target: T2, HSPA9-HA (Homo sapiens (Human), UniProt P38646 1-679, limits assumed); test: co-IP with T7-LC3C in HEK293T
T2 construct: Plasmid pCMV3-HSPA9-HA (SinoBiological HG16926-CY); also called long-form of HSPA9; not shown: C-terminal HA tag
Method: as §1, §2

[3] = target: T3, CCT2 D2-P7 fusion protein (Homo sapiens (Human), UniProt P78371 217-519); test: co-IP
T3 construct: D2 domain of CCT2 fused to the P7 peptide of CCT2; also called HA-D2-P7; not shown: HA tag of plasmid pFUGW-HA-D2-P7
T3 sequence: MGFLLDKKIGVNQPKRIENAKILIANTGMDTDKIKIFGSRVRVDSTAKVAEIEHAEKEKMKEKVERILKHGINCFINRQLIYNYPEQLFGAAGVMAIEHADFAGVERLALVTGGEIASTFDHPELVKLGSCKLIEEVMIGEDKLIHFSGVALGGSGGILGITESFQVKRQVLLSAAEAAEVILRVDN
Method: as §2, with “buffer. As for the BFP-tagged Q103, the supernatants were incubated with rabbit anti-BFP antibodies and Protein A/G PLUS-Agarose according to the manufacturers' protocol. After washing, 2×SDS loading buffer was added to the beads, and immunoblot was performed as described previously.” for “buffer.”

[4] = target: T4, GFP-CCT2 D3 (aa369-535 of CCT2) (human, UniProt P78371 369-535); test: co-IP of GFP-tagged CCT2 variants with T7-LC3C in HEK293T
T4 construct: also called C-terminal one-third of CCT2; not shown: GFP tag
T4 sequence: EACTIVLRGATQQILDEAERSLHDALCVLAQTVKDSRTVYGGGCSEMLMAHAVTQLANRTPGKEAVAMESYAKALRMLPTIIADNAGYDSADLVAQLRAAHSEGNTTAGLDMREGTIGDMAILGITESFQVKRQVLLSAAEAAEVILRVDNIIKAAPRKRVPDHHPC
From the text: The cells were permeabilized with digitonin before fixation. [0136] (G) Quantification of LC3 around Q103-HTT IB (mean±SEM) as shown in (F). […] [0137] […] The cells were permeabilized with digitonin before immunoblot analysis. LE, long exposure; SE, short exposure. [0138] (I) Quantification of normalized Q103-HTT (mean±SEM) in (H). […] [0139] […] The VLIR motif VIL is highlighted in red. [0140] […] The data are representative of three independent experiments. [0141] […] The cells were permeabilized with digitonin before fixation. [0142] (M) Quantification of LC3 around IBs (mean±SEM) as shown in (L). […] [0143] […] [0144] (O) Quantification of normalized Q103-HTT (mean±SEM) in (N).
as §2, with “buffer. As for the BFP-tagged Q103, the supernatants were incubated with rabbit anti-BFP antibodies and Protein A/G PLUS-Agarose according to the manufacturers' protocol. […]” for “buffer.”

[5] = target: T5, HA-CCT2 (chaperonin subunit CCT2, wild type, N-terminal HA tag) (human, UniProt P78371 2-535); test: co-IP of HA-CCT2 with T7-LC3C in HEK293T with knockdown of P62, NBR1 and TAX1BP1
T5 construct: Expressed in HEK293T or U2OS from pFUGW-HA-CCT2; CCT genes were amplified from HEK293T cDNA; also called WT CCT2; HA-CCT2 WT; not shown: N-terminal HA tag
T5 sequence: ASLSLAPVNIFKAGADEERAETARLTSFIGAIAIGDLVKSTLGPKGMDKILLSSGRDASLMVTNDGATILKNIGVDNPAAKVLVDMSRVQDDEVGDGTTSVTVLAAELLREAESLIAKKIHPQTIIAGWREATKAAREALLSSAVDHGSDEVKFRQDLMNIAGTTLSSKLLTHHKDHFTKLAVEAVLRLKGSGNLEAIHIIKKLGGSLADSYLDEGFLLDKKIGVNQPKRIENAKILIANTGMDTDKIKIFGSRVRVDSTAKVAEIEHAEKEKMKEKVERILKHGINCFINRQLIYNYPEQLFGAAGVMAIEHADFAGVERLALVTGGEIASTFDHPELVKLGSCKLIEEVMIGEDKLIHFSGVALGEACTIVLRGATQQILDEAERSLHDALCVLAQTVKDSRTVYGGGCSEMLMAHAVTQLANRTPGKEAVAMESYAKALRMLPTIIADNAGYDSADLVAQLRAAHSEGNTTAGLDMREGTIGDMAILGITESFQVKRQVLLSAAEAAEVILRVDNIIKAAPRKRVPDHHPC
Method: as §1, §2

Measured: binding result

T2 sequence (P38646 whole entry): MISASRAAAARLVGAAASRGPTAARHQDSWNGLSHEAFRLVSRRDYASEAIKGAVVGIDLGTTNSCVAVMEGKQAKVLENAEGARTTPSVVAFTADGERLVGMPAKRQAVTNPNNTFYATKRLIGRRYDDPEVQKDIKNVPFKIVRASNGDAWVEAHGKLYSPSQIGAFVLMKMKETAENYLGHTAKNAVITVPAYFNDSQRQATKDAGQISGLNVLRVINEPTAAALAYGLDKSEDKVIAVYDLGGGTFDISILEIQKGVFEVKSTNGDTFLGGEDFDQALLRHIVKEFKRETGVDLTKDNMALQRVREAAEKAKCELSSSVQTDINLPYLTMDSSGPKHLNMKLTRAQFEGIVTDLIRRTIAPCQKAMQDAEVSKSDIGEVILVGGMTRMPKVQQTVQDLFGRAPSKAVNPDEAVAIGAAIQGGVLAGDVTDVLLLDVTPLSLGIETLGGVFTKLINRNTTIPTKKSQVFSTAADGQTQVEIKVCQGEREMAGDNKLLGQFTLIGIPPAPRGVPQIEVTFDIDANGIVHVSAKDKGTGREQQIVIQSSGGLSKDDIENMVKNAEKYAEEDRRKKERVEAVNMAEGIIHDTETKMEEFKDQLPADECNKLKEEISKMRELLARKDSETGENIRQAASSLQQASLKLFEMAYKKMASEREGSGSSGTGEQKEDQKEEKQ
T1 sequence (P40227 2-531 limits assumed): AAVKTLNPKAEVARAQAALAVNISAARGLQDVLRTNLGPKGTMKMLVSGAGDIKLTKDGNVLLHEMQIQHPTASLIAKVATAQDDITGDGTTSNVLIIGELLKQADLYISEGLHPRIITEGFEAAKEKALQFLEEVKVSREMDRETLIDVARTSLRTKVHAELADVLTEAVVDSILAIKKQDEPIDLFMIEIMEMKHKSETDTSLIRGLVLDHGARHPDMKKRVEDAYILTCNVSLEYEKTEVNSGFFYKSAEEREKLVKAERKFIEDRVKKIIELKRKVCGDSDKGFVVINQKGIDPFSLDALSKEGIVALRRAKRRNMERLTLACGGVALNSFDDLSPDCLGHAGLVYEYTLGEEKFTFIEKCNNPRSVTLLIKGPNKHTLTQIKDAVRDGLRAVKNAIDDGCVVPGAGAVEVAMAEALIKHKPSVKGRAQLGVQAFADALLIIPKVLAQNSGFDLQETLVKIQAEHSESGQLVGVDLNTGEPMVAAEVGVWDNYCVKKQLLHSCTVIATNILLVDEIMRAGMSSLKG

B1: T7-LC3C (expressed in cells) (other, UniProt Q9BXW4 1-126, looked up)
chain: MPPPQKIPSVRPFKQRKSLAIRQEEVAGIRAKFPNKIPVVVERYPRETFLPPLDKTKFLVPQELTMTQFLSIIRSRMVLRATEAFYLLVNNKSLVSMSATMAEIYRDYKDEDGFVYMTYASQETFG
notes: Expressed from pCDNA3-T7-LC3C; not shown: T7 tag
binds: all assays above
